Laboratory results from PMC10500007.
Changes are numbered by the printed parent chain. Names and notes keep the numbering of the source.

T1: human integrin αvβ6 (soluble, construct not stated), P06756;P18564
T1 chain 1: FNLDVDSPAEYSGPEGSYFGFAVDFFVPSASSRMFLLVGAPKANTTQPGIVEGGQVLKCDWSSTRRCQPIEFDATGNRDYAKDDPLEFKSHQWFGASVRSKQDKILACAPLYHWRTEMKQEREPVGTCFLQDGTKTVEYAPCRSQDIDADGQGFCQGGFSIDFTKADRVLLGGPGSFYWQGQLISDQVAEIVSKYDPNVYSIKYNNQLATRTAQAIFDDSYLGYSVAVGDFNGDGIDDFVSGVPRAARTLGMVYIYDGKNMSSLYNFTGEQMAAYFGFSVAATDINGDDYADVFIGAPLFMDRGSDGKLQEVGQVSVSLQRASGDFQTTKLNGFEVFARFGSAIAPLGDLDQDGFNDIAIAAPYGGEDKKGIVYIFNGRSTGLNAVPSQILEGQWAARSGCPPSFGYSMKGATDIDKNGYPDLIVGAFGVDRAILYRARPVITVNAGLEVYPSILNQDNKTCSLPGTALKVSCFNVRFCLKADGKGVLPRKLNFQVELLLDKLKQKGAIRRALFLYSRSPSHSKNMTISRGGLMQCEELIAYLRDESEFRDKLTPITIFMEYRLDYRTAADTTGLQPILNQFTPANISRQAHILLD
T1 chain 2: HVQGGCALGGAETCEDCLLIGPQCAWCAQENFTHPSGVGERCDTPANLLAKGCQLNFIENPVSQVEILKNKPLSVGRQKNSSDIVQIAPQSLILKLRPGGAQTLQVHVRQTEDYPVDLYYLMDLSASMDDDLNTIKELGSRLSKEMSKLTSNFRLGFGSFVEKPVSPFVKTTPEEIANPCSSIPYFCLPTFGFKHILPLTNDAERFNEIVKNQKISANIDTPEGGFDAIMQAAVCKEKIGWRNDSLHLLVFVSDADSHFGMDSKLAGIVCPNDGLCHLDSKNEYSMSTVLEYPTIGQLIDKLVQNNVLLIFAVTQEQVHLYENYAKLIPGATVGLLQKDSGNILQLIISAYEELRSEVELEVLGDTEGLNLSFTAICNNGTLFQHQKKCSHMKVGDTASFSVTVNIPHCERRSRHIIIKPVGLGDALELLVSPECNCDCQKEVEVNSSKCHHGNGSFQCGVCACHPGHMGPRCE

T2: human integrin αvβ8 (soluble, construct not stated), P06756;P26012
T2 chain 1: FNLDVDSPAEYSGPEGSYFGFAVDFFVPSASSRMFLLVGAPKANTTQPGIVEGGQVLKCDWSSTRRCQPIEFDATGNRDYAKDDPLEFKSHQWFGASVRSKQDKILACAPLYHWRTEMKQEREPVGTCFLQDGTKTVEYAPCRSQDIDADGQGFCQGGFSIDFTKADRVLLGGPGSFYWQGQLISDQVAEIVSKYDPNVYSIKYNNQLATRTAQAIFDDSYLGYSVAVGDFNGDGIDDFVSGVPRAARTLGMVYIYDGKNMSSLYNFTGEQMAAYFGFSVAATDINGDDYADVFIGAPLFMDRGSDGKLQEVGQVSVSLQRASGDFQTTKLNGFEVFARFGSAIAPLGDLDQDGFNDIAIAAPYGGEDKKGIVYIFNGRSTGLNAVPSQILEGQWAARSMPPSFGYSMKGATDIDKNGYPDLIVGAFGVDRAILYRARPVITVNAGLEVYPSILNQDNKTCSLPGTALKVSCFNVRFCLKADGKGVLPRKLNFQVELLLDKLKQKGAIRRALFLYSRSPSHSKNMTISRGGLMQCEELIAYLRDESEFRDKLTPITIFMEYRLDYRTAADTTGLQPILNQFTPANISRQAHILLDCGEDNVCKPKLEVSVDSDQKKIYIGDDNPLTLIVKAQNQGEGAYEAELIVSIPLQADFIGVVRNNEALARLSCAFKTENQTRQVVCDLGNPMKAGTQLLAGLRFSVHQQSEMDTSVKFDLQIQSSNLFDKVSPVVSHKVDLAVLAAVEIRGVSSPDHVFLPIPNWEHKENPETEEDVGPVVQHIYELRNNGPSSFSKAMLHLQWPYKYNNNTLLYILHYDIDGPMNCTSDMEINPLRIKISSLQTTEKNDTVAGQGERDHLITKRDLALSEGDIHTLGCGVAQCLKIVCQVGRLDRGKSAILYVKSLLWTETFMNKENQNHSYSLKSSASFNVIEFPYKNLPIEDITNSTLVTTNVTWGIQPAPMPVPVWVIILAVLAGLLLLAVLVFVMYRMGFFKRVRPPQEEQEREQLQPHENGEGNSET
T2 chain 2: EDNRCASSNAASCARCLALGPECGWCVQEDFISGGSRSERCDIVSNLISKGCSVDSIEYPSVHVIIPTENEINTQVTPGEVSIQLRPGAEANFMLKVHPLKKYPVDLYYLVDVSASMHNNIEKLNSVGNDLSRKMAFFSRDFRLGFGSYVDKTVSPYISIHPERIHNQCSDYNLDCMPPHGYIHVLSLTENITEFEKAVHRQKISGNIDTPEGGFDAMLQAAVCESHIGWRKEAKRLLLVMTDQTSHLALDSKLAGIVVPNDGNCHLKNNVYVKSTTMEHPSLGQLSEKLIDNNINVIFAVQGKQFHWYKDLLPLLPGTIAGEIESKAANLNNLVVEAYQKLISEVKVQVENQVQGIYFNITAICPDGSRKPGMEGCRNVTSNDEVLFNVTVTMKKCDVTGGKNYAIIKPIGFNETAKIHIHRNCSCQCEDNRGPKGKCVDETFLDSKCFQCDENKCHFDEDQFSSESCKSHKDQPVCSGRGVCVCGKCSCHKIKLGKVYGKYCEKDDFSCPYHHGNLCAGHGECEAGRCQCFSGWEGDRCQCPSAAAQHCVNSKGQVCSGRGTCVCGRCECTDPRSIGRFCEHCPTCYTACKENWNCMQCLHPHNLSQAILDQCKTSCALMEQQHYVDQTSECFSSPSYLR

B1: B8_BP_dslf M13L; Y16I (protein)
chain: TKCVVRFNFRGDLAVIALKAVKDHLKKEGPHWNITTHNDDEVYLVVRGIHESDAKRIAKWVESTIPGISVETQCD
B2: B8_BP_dslf M13L; V15T; Y16I (protein)
chain: B1 chain with V15T
B3: B8_BP_dslf Y16I (protein)
chain: B1 chain with L13M
B4: B8_BP_dslf V15T; Y16I (protein)
chain: B1 chain with L13M, V15T

Experiments:
[1] = target: T1, human integrin αvβ6 (soluble, construct …); assay: BLI; conditions: chain shown with the change;; parent: > 1000 nM
[2] = target: T2, human integrin αvβ8 (soluble, construct …); assay: BLI; conditions: chain shown with the change;; parent: 1.9 nM

Row | Binder | Kd [1] [nM] | Kd [2] [nM]
1 | B1 | 0.7 | 0.3
2 | B2 |  | 0.3
3 | B3 |  | 0.2
4 | B4 |  | 0.1
